# Experimental data reported in US20090075921A1, “Bone/joint disease sensitivity gene and use thereof” (Riken, priority 2004, published 2009).
# d = 2'-deoxy (DNA); r = 2'-OH (RNA)
# B1: human asporin D13: human asporin with 13 aspartic acid repeats, expressed from pcDNA3.1-ASP13 (SEQ ID NO:4) (protein, UniProt Q9BXN1 33-380, looked up)
# Asporin: DMEDTDDDDDDDDDDDDDDEDNSLFPTREPRSHFFPFDLFPMCPFGCQCYSRVVHCSDLGLTSVPTNIPFDTRMLDLQNNKIKEIKENDFKGLTSLYGLILNNNKLTKIHPKAFLTTKKLRRLYLSHNQLSEIPLNLPKSLAELRIHENKVKKIQKDTFKGMNALHVLEMSANPLDNNGIEPGAFEGVTVFHIRIAEAKLTSVPKGLPPTLLELHLDYNKISTVELEDFKRYKELQRLGLGNNKITDIENGSLANIPRVREIHLENNKLKKIPSGLPELKYLQIIFLHSNSIARVGVNDFCPTVPKMKKSLYSAISLFNNPVKYWEMQPATFRCVLSRMSVQLGNFGM
# How the values were obtained:
# [1] = tested on: NHAC; experiment: Effects of SB431542 on gene expression induction by TGF-β1 in NHAC; format: cell-based, human; details: SB431542 10 μM added 30 minutes before TGF-β1 10 ng/ml, 12 hours
# Protocol: A time course of the expression of the asporin gene by TGF-β1 in NHAC was examined as described below. Cells were inoculated to a 12-well plate at 1×10^5 cells/well, and cultured in a DMEM/F12 containing 10% FBS until they became confluent. The medium was exchanged with a DMEM/F12 containing 0.2% FBS, and the cells were cultured for 24 hours, after which TGF-β1 (10 ng/ml) was added, total RNA was extracted over time, and the expression levels of the asporin and GAPDH genes were examined. As a result, the expression level of the asporin gene maximized when the cells were cultured in the presence of TGF-β1 (10 ng/ml) for 12 hours, and thereafter the expression level decreased over time (FIG. 46).
# In the experimental system for asporin gene expression induction by TGF-β1 used in the method described in Example 54, the effects of SB431542 (Sigma) (10 μM), an inhibitor of TGF-β1 type 1 receptor phosphorylation, on the induction of the expression of the asporin, type II collagen, aggrecan, and TGF-β1 genes (12 hours), when added 30 minutes before addition of TGF-β1 (10 ng/ml), were examined.
# [2] = tested on: NHAC; experiment: Asporin-specific siRNA transfection in NHAC, gene expression; format: cell-based, human; details: 24 hours, medium with 10 ng/ml TGF-β1
# Protocol: Asporin-specific siRNA (Si9: […]; SEQ ID NO:35) was designed using an siRNA design support system in Takara Shuzo's website (http://www.takara-bio.co.jp/rnai/intro/htm). […] Cells were inoculated to a 12-well plate at 5×10^5 cells/well, and cultured in a DMEM/F12 containing 10% FBS, ITS, 10 ng/ml TGF-β1 and penicillin/streptomycin for 24 hours, and siRNA transfection was performed using TransIT-TKO (Takara Shuzo). Total RNA was extracted from the cells after 24 hours of cultivation, and examined for the expression of the type II collagen, aggrecan and TGF-β1 genes. […] Therefore, endogenous asporin was thought to negatively regulate the expression of cartilage substrate and the expression of TGF-β1 in NHAC.
# [3] = tested on: ATDC5 cell lines that stably express human asporin; experiment: TGF-βs-stimulated aggrecan and type II collagen gene expression in ATDC5 lines stably expressing human asporin; format: cell-based, mouse; details: stably expressing lines vs mock, TGF-βs 10 ng/ml, 24 hours
# Protocol: Plasmid DNAs for allowing ATDC5 cells, a mouse cartilage stem cell line, to stably express human asporin were prepared as described below. First, by the method described below, full-length cDNAs of human asporin D13 and D14 were acquired. Using KOD-plus (Toyobo), according to the method described in the attached protocol, a reaction mixture was prepared. Per 25 μl of the reaction mixture, […] each of a sense strand primer comprising the initiation codon and a restriction enzyme XhoI site, and an antisense strand primer comprising the stop codon of aspotin and a restriction enzyme BamHI site, were used as the primers, and 1 μl (10 ng as total RNA) of a cDNA solution prepared from total RNA extracted from knee articular cartilage from OA patients carrying the D13 allele and the D14 allele of aspartic acid repeat polymorphisms in asporin heterologously was used as the template. […]
# The TGF-βs-stimulated expression of the aggrecan and type II collagen genes in ATDC5 cell lines that stably express human asporin was quantified by the method described below. […] For real-time PCR, reactions were performed using QuantiTect SYBR Green PCR Kit (QIAGEN), and detection and quantitation were performed using ABI PRISM 7700. […]
# [4] = tested on: ATDC5 cell lines that transiently express human asporin; experiment: TGF-β1-stimulated aggrecan and type II collagen gene expression in ATDC5 transiently expressing human asporin; format: cell-based, mouse; details: transient expression vs mock, TGF-β1 10 ng/ml, 18 hours
# Protocol: ATDC5 cells were inoculated to a 12-well plate at 0.5×10^5 cells/well, and cultured in a medium 1-2 (DMEM/F12 medium containing 5% FBS, ITS (Sigma), penicillin (100 U/ml) and streptomycin (100 μg/ml)). 24 hours later, pcDNA3.1-ASP13 or pcDNA3.1-ASP14 were introduced using FuGENE-6 (Roche), and the cells were cultured for 24 hours. Next, the medium was exchanged with a medium 1-2 containing 0.2% FBS, and the cells were cultured for 12 hours, after which TGF-β1 (10 ng/ml) was added, and the cells were further cultured for 18 hours, after which total RNA extraction, purification, cDNA synthesis, and real-time PCR were performed in the same manner as Example 18. As a result, the elevation of the TGF-β1-stimulated expression levels of the aggrecan and type II collagen genes was suppressed in the ATDC5 cells allowed to transiently express human asporin D13 or D14 compared to mock (FIG. 14).
# First, the expression level of the aggrecan gene elevated by TGF-β1 stimulation in mock is written as (AM), and the expression level of the type II collagen gene at the same time is written as (CM). Next, the TGF-β1-stimulated aggrecan gene expression level suppressed by the forced expression of asporin D13 is written as (A13), and the type II collagen gene expression level at the same time is written as (C13). […] Thus, the suppression rate of the TGF-β1-stimulated aggrecan gene expression in the asporin D13 expressing line can be expressed as (A13)/(AM), and the suppression rate of the type II collagen gene expression as (C13)/(CM). Likewise, the suppression rate of the TGF-β1-stimulated aggrecan gene expression in the asporin D14 expressing line can be expressed as (A14)/(AM), and the suppression rate of the type II collagen gene expression as (C14)/(CM). Furthermore, by making a correction by dividing these values by the human asporin mRNA content obtained with TGF-β1 stimulation, the suppression rate of the aggrecan and type II collagen gene expression per human asporin mRNA content were calculated. […]
# [5] = tested on: ATDC5 cell lines that stably express human asporin; experiment: Cartilage differentiation culture of ATDC5 lines stably expressing human asporin; format: cell-based, mouse; details: stably expressing lines, 5, 9, 15 or 21 days; mock peaks on Day 9
# Protocol: The ATDC5 cell lines that stably express human asporin prepared in Example 17 were inoculated to a 12-well plate at 0.3×10^5 cells/well, and cultured in a medium 1-1 for 5, 9, 15 or 21 days, after which total RNA extraction, purification, cDNA synthesis, and real-time PCR were performed in the same manner as Example 18.
# [6] = tested on: ATDC5 cell lines that stably express human asporin; experiment: Alcian Blue staining of extracellular proteoglycan in ATDC5 lines stably expressing human asporin; format: cell-based, mouse; details: Day 21 of cultivation, absorbance at 630 nm
# Protocol: The ATDC5 cell lines that stably express human asporin prepared in Example 17 were cultured by the method described in Example 20; using the cells on Day 21 after the start of cultivation, Alcian Blue staining was performed as described below. First, the medium was removed by suction, and the cell surface was washed with cold PBS three times, after which methanol fixation was performed at 4° C. for 2 minutes. The methanol was removed by suction, the cells were once rinsed with distilled water, and then stained using 0.1% Alcian Blue 8GX (Sigma)/3% acetic acid solution at 4° C. for 2 days. The staining solution was removed, the cells were washed with distilled water three times, and then examined under microscope and photographed. Thereafter, the cells were treated with aqueous solution of 6 M guanidine hydrochloride to extract the stained proteoglycan, after which the absorbance at 630 nm was measured.
molecule,measurement,setting,value
NC(=O)c1ccc(-c2nc(-c3ccc4c(c3)OCO4)c(-c3ccccn3)[nH]2)cc1 [SB431542],"induction by TGF-β1 of the expression of the asporin, type II collagen, aggrecan, and TGF-β1 genes",[1],inhibited the induction by TGF-β1 of the expression of these genes
"UCCCUUCAGGAUUACCAGATT (siRNA; sugars from the 5' end r19 d2, backbone not given here) [asporin-specific siRNA]","expression of the type II collagen, aggrecan and TGF-β1 genes",[2],significantly increased
B1,elevation of the TGF-β1-stimulated expression levels of the aggrecan and type II collagen genes,[3],suppressed compared to mock
same,elevation of the TGF-β1-stimulated expression levels of the aggrecan and type II collagen genes,[4],suppressed
same,expression of the aggrecan and type II collagen genes during cartilage differentiation culture,[5],did not rise
same,intensity of staining with Alcian Blue (extracellular proteoglycan),[6],mock>D13>D14
